{"source": "paper PMC6954422", "key": {"[1]": {"biological_target": "stammer-less MITF(Δ) protein fragment 217–296 (Mus musculus)", "assay": "SEC"}, "[2]": {"biological_target": "MITF(wt) protein fragment 217–296 (Mus musculus)", "assay": "SEC"}}}
{"substance": "stammer-less MITF(Δ) protein fragment 217–296 (domain or fragment)", "values": [{"measurement": "stoichiometry N", "setting": "[1]", "result": 2}]}
{"substance": "MITF(wt) protein fragment 217–296 (domain or fragment)", "values": [{"measurement": "stoichiometry N", "setting": "[2]", "result": 2}]}
